The assay addresses GST coupled TRPM8 N terminal fragment (1~691) (UniProt Q7Z2W7). The assay is described as follows: pull-down.
Sequence of UniProt Q7Z2W7 (Q7Z2W7 1-691): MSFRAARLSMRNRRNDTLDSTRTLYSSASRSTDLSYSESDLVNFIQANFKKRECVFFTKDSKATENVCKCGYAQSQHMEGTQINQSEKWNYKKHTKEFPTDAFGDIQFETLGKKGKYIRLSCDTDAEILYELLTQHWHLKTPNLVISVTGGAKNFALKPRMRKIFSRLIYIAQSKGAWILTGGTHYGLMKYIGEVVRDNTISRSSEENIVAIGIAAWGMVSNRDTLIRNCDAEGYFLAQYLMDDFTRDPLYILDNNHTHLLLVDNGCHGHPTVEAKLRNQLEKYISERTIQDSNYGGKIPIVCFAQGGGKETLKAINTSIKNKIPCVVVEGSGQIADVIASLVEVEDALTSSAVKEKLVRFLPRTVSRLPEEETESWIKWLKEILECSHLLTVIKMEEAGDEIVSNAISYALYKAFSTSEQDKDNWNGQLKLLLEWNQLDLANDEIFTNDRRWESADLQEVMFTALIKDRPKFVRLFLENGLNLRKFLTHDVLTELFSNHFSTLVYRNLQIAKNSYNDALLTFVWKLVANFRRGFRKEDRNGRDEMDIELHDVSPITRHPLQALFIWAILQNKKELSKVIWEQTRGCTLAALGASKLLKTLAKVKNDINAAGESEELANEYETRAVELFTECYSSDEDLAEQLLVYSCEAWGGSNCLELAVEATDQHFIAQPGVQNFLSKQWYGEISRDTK

Consider “Gαq (wild type) (from UniProt P50148 1-359) (natural protein)”, for which the fold Gαq bound relative to TRPM8 C terminal turned out to be 1.28 fold.
